B1: vp1 promoter probe (dsDNA)
DNA 1: GTCCTTGAAACTGCAATCCAAATCTACGCAACCGTTTTGCATGCCACTGTTTGTA
DNA 2: TACAAACAGTGGCATGCAAAACGGTTGCGTAGATTTGGATTGCAGTTTCAAGGAC
B2: sus1 promoter probe (dsDNA)
DNA 1: CTGAACCGTTTTTCGGTTTCAGTTTTCTCTGCTGACTGAAGCTTC
DNA 2: GAAGCTTCAGTCAGCAGAGAAAACTGAAACCGAAAAACGGTTCAG
B3: fl3 promoter probe (dsDNA)
DNA 1: TGTACAAATATTTCTACTGACAGTTTTTAAGAAACCACCTGTGGA
DNA 2: TCCACAGGTGGTTTCTTAAAAACTGTCAGTAGAAATATTTGTACA
B4: c1 promoter probe (dsDNA)
DNA 1: CATCATTCGATCAGTTTTCGTTCTGATGCAGTTTTCGATAAATGC
DNA 2: GCATTTATCGAAAACTGCATCAGAACGAAAACTGATCGAATGATG

molecular target: DED1 (R2R3-MYB), GST fusion (Zea mays, UniProt A0A804M0V9 1-450); assay: EMSA; 5 mM Mg2+; EMSA: 50 ng DED1-GST, 6 ng probe in 20 uL 10 mM Tris pH 7.5, 50 mM KCl, 1 mM DTT, 2.5% glycerol, 5 mM MgCl2, 50 ug/uL (so in the source) poly(dI-dC), 0.05% NP-40, 25; conditions: protein: recombinant; tags: GST (N-terminal, pGEX-4T-1); label: biotin 3' end on one strand; blunt
Sequence (A0A804M0V9 entry or part of it): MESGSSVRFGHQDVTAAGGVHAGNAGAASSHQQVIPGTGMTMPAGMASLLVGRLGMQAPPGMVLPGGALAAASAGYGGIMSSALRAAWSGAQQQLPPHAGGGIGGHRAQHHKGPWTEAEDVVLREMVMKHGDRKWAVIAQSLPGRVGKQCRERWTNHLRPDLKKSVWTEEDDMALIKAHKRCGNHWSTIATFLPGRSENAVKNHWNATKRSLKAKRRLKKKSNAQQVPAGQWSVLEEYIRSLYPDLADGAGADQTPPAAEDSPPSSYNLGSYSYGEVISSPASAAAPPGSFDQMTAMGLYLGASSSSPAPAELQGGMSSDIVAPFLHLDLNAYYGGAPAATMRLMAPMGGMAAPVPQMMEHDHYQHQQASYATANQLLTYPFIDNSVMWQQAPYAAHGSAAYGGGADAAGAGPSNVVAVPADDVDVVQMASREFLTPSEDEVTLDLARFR

Binding result, binds:
B1
B2
B3
B4

From article PMC9470594, “Paternal imprinting of dosage-effect defective1 contributes to seed weight xenia in maize”
